Data published in the DeepSol protein solubility set.

test: soluble on expression in E. coli; label from the status in PepcDB or PDB records

Sequence	soluble on expression in E. coli
MNFETVIGLEVHVELKTKSKIFSSSPNAFGAPPNTQTNVIDLGYPGVLPVLNRQAVEFAMKAAMALNCEIATETKFDRKNYFYPDNPKAYQISQYDQPLGKNGWIEIEVNGKKKKIGITRIHLEEDAGKLTHTGDGYSLVDFNRQGTPLIEIVSEPDIRSPEEAYAYLEKLKAIIQYTGVSDCKMEEGSLRCDANISLRPIGSDKFGTKTELKNLNSFNFVRMGLEYEAKRQEKILLSGGVIRQETRRFDEATKTTVLMRVKEGSEDYRYFPEPDLVMLYIDDEWKERVRASIPELPDARRKRYIEEWGLPEYDAKVLTLTKEMADFFEATVANGADPKLASNWLMVEVSGYLNAEQKELHDIALTPESLAGMIKLIQDGTISSKIAKKVFKELVEHGGDPERIVKEKGLVQISDEGALRKIVLEVLDANPQSVEDYKNGKDRALGFLVGQVMKATKGQANPPLVNKLLVEEIGKR	not soluble
MELRAATKLTEEKYELKEGQTLDVKCDYTLEKFASSQKAWQIIRDGEMPKTLACTERPSKNSHPVQVGRIILEDYHDHGLLRVRMVNLQVEDSGLYQCVIYQPPKEPHMLFDRIRLVVTLEHHHHHH	soluble
SDAMDKRLKIATIGGGSSYTPELVEGLIKRYHELPVGELWLVDIPEGKEKLEIVGALAKRMVEKAGVPIEIHLTLDRRRALDGADFVTTQFRVGGLEARAKDERIPLKYGVIGQETNGPGGLFKGLRTIPVILDIIRDMEELCPDAWLINFTNPAGMVTEAVLRYTKQEKVVGLCNVPIGMRMGVAKLLGVDADRVHIDFAGLNHMVFGLHVYLDGVEVTEKVIDLVAHPDRSGVTMKNIVDLGWEPDFLKGLKVLPCPYHRYYFQTDKMLAEELEAAKTKGTRAEVVQQLEKELFELYKDPNLAIKPPQLEKRGGAYYSDAACSLISSIYNDKRDIQPVNTRNNGAIASISAESAVEVNCVITKDGPKPIAVGDLPVAVRGLVQQIKSFERVAAEAAVTGDYQTALVAMTINPLVPSDTIAKQILDEMLEAHKEYLPQFFKQAKATAGN	soluble
MGSDKIHHHHHHMSSPSFNVEEHKKMLQSYFNGQGFQRWASIYGDDKLSTVRSTVRQGHAVMMDKAFEWLQKTGLPKGSKILDAGCGTGLFTIRLAKSGYRVKAADIAEQMVNKTREDAEKAGVAGNVEFEVNSIESVSGTFDAVVCFDVLIHYPAEGFAHAFSNLAGLTKGPIIFTYAPFNNILAFQHWIGGFFPKKERRTTIQMIKDKEMQRVLSELGLKIVSQQKISFGFYHTMLMHVARR	not soluble
MANVLCNRARLVSYLPGFCSLVKRVVNPKAFSTAGSSGSDESHVAAAPPDICSRTVWPDETMGPFGPQDQRFQLPGNIGFDCHLNGTASQKKSLVHKTLPDVLAEPLSSERHEFVMAQYVNEFQGNDAPVEQEINSAETYFESARVECAIQTCPELLRKDFESLFPEVANGQTNDSDWLEHHHHHH	soluble
MGSDKIHHHHHHMMIATFSLSPAGAKRLIARGLINEAVFQQAMTHGRMIIGVGTTNSYIAEELGLLSADEKPRFAAGIVSGGVPCVTAADTRFTSICLENGRIIKDISWEEFIMDFNRDDVFVKGANAFDADGNAGVLLANPRGGTVGGSFGVLAARGCKLLVPVGHEKLIPSCTAAARLMGINRLDYSLGQRCGLALLPAGFAQIYTEIDALKTLFAVEATIVAAGGVSGSEGSVMLAIDGPDEAVKDALALARTLLKEKPLSVPRQSCKDCQASGNCVFKEIPPID	not soluble
MGSDKIHHHHHHMSHTLYEASVIRVQRCELAVPGSNPGMFEKALKSGVDFVFLDLEDAVAPDDKLTARKNVIEALNDLDWRGHGVTVSVRINGLDTQFMVRDVVDVVEKAGHKLDTILIPKVGVYSDVYMVEAMLNQLEMQQGLKNRIGIEALIETALGMANVEDIARHGVRGRLEALHFGVADYAASNRARTTNIGGLNPDYPGDQWHAAISRMTVACRAYGLRPIDGPFGDIQDPEGYKAAARRAAALGCEGKWAIHPSQIDLANEVFTPPPSEVEKAQRILAALQEAAAQGKGAAALDGRLIDAASARMANNVVKMAEAIGATAT	not soluble
MSLGEKTKLEQIKDNGKLVVGTSAEFPPFEFHKVVDGKDSIKGFDIMLAEEFAKELGVKVEIKDMSFDGLIGALNADQVDIVLAGMSPTPEREKSVDFSELYYLSRNAVIVKDADIDKVKTEDDLKKLRVGVQAGSIQEEYVVNTLKMTTTKSLKAIPDLITELKNGNIDAVVTNEAVSLINVKKYDGIKMANTEVGKDVTEGMAAAIKKSDNNKDFIELLNKKIKELQDGKKIEEFLNEASTEAASEGHHHHHH	soluble
MAHHHHHHMHDRIFAFAQQKVGLTAEQAECLSRKYWLNYGLSLYGYVKEYNVDAKEYSDFVHQCSYDKLHYNKPLIDMLLIMQYAPEAARGHDGPRSTNIDHLYYFTNANHSHARNVLDAQGLRPIFTRPRPVGLPVKENHPASEQAGAEDQVEWLGFSYEDQWQLTHPEIANKPMRQAYEAIYKAIEDQVAEDAALVATTTTAGSGSAFASSSASRNSDIAEEVKNKRARLRPENFVMVDDSLMNIDAPLELGWSAVWYAHDTQELPTDVKDNASAPLYAAAVASGRLQVIRNILELRAAVERIREVNSRSASS	not soluble
TEQATTTDELAFTRPYGEQEKQILTAEAVEFLTELVTHFTPQRNKLLAARIQQQQDIDNGTLPDFISETASIRDADWKIRGIPADLEDRRVEITGPVERKMVINALNANVKVFMADFEDSLAPDWNKVIDGQINLRDAVNGTISYTNEAGKIYQLKPNPAVLICRVRGLHLPEKHVTWRGEAIPGSLFDFALYFFHNYQALLAKGSGPYFYLPKTQSWQEAAWWSEVFSYAEDRFNLPRGTIKATLLIETLPAVFQMDEILHALRDHIVGLNCGRWDYIFSYIKTLKNYPDRVLPDRQAVTMDKPFLNAYSRLLIKTCHKRGAFAMGGMAAFIPSKDEEHNNQVLNKVKADKSLEANNGHDGTWIAHPGLADTAMAVFNDILGSRKNQLEVMREQDAPITADQLLAPCDGERTEEGMRANIRVAVQYIEAWISGNGCVPIYGLMEDAATAEISRTSIWQWIHHQKTLSNGKPVTKALFRQMLGEEMKVIASELGEERFSQGRFDDAARLMEQITTSDELIDFLTLPGYRLLA	soluble
MSLLNKMRCSVSAEVYGEWNKKKNFVAPVYEKDEGQKEQLERILRQSFLFNSLDEKDLNTVILAMQEKKIEASTCLIREGDDGECLYIVQSGELNCSKLIDGEERVVKVVGPGDAFGELALLYNAPRAATVTSVSACDLWELGRDTFNAIVKDAATKRRSMYDSFLKSVHILDGMDAYERGKVADALRTEMFTDGAYIVRQGELGDVFYIVEEGSAVATKSFGPGQPPIEVKKYQAGDYFGELALINEEPRAANVIAHGICKVACLERKSFKRLMGSVQDLLSKKASDLLTMAEEGHHHHHH	soluble
MRGSHHHHHHGSACVSKRRVVVTGLGMLSPVGNTVESTWKALLAGQSGISLIDHFDTSAYATKFAGLVKDFNCEDIISRKEQRKMDAFIQYGIVAGVQAMQDSGLEITEENATRIGAAIGSGIGGLGLIEENHTSLMNGGPRKISPFFVPSTIVNMVAGHLTIMYGLRGPSISIATACTSGVHNIGHAARIIAYGDADVMVAGGAEKASTPLGVGGFGAARALSTRNDNPQAASRPWDKERDGFVLGDGAGMLVLEEYEHAKKRGAKIYAELVGFGMSSDAYHMTSPPENGAGAALAMANALRDAGIEASQIGYVNAHGTSTPAGDKAEAQAVKTIFGEAASRVLVSSTKSMTGHLLGAAGAVESIYSILALRDQAVPPTINLDNPDEGCDLDFVPHEARQVSGMEYTLCNSFGFGGTNGSLIFKKI	soluble
MGSDKIHHHHHHMSENIRALSRGLNVLEFLSETGGATRQATVAHFGLSRPTIYRLLGTLEKSGLISLGDDGVYRPTIATRALKEGLTDDVWALWAAEPILLELQKEVVWTSEITTFDAYSCTMLKRDTTHSLNPYHINLLDFDDNHRSMLTSACGLAYLAFCPQQQRAQILEHLGHFGDRTQSDSQRPDSQRGAGAHTRNLINKVISDGYAVEQRNSYPLIAAIAVPIRYDNRVLACLSIVWLPRAVKLQDGITQFLPALKRAQSFIEQKLLDDASIEYDTNFTAKYVHHGQQHELI	not soluble
MAHHHHHHMRNSFFPMLCEKQSTPELEAMPLYLPDTVVLQLHRHDGEAEFADYMDANSLTFVALGDAERPALCGIDATAQLHYEGAQRTLVSAAGIVSGIRRRRLRVPFGMSELSELLRRAYNTEKGNRNNSLTGSTETVLLTHLFSDAVWAEESFHCLSTTRRVGNILGSTGIGSATRDLAVERWRLDQDIMELRDELMIARTVYDYRHCGYESNRSISGMEEEGMKRVNAIQSNREEERKWQLSVFCERAKHEAEKMIKELEQRGGATLDELQKTLEAKKRESSALQADRENRIWEYEHTLEKIRTRKQDEESASERLRQAMQQLEQELSLRQSAIETREQQLEMVQLDGARGREAIMRERHSIEAVSPAEAVDPSD	not soluble
SLGNSYAGQLKTTRFEEVLHNSIEASLRSNNLVPRPIFSQLYLEAEQQLAALEGGSRVDNEEEEEEGEGGLETNGPPNPFQLHPLPEGCCTTDGFCQAGKDLRLVSISNEPMDVPAGFLLVGVKSPSLPDHLLVCAVDKRFLPDDNGHNALLGFSGNCVGCGKKGFCYFTEFSNHINLKLTTQPKKQKHLKYYLVRNAQGTLTKGPLICWKGSEFRSRQIPASTCSSSLFPALESTAAFPSEPVPGTNPSILMGAQQAGPASDHPSLNAAMGPAVFNGKDSPKCQQLAKNNLLALPRPSALGILSNSGPPKKRHKGWSPESEG	soluble
LFTPDKQRITESVAFKDLSSPELEQYIGDTQAEKLRADIELIDGVYQPFDKEEYLAGQLAPVFFGSALNNFGVQELLNCFVEIAPSPQPVAAVERKVDPHEEEFTGFVFKIHANMDPNHRSCIAFVKICSGRFERNTNYKHIRLGKQFRFSSPTAFMAQRKETVDEAYAGDIIGLPDTGNFQIGDTLTAGEELHFRGLPSFSPELFKYIENQDPMKAKQLAKGIDQLMGEGVAQLFTNQFNGRKIIGTVGQLQFEVIQYRLLHEYGAQCRWEPISLYKACWIDSDKPEALEAFKKRKAQYMAKDIAGRDVYLADSGYVLNMAQQDFPDIRFHFTSEF	not soluble
GYTLWNDQIVKDEEVKIDKEDRGYQFGDGVYEVVKVYNGEMFTVNEHIDRLYASAEKIRITIPYTKDKFHQLLHELVEKNELNTGHIYFQVTRGTSPRAHQFPENTVKPVIIGYTKENPRPLENLEKGVKATFVEDIRWLRCDIKSLNLLGAVLAKQEAHEKGCYEAILHRNNTVTEGSSSNVFGIKDGILYTHPANNMIAKGITRDVVIACANEINMPVKEIPFTTHEALKMDELFVTSTTSEITPVIEIDGKLIRDGKVGEWTRKLQKQFETKIPKPLHI	soluble
GHHHHHHMTTQLEQAWELAKQRFAAVGIDVEEALRQLDRLPVSMHCWQGDDVSGFENPEGSLTGGIQATGNYPGKARNASELRADLEQAMRLIPGPKRLNLHAIYLESDTPVSRDQIKPEHFKNWVEWAKANQLGLDFNPSCFSHPLSADGFTLSHADDSIRQFWIDHCKASRRVSAYFGEQLGTPSVMNIWIPDGMKDITVDRLAPRQRLLAALDEVISEKLNPAHHIDAVESKLFGIGAESYTVGSNEFYMGYATSRQTALCLDAGHFHPTEVISDKISAAMLYVPQLLLHVSRPVRWDSDHVVLLDDETQAIASEIVRHDLFDRVHIGLDFFDASINRIAAWVIGTRNMKKALLRALLEPTAELRKLEAPGDYTARLALLEEQKSLPWQAVWEMYCQRHDTPAGSEWLESVRAYEKEILSRRG	soluble
